Data reported in the supplement of paper PMC12636428.

System: Saccharomyces cerevisiae
Experiment: transcriptional activation domain activity (GFP:mCherry ratio, weighted mean of sorted bins, harmonized to initial dataset scale) (arbitrary fluorescence ratio units); higher = stronger transcriptional activation
Conditions: beta-estradiol 1 µM; induction time 4 h
How it was run: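 Sorting into 8 bins by GFP:mCherry ratio followed a 4-hour hold at 30 °C after cultures were diluted 1:5 into SC with 1 uM beta-estradiol. The yeast diploids carried a GFP reporter and had barcoded protein tiles, fused to an estradiol-inducible synthetic transcription factor, integrated at URA3. Barcodes were then sequenced, and tiles with under 50 reads were removed. Activation activity is the read-weighted mean of bin median fluorescence, averaged across barcodes and linearly mapped onto the initial dataset scale.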

Sequence	transcriptional activation domain activity
MFYNFFFFIIIYLCFFARMFLVVSRIVMLLAFLYSCLIPLLCGLVFFCIRFKS	67300
MFYNFLFSLFSLFHMLLLHQSLVSLSYPFFLPGNFPLSVTIFIIAPLSLFWFI	48900
MFYYIYLFSFFFIIVLPLPLSLCTFLHPLLLDCNFTLVAFFFCLLLFYVCHFF	28800
MFYYYFSPHFYCFMLPLYIFLFLISLFFIYPSKFYFLLIVMGVGFFSLHLCLP	51500
MGARYWILECGDWLMAKAVPNSLPIVSFLFLLFFPWPFFVFILYLTLIALYSS	42400
MGASLRVQIWVCIRLELCCSWIWFLASFGILFFFFCFCPLRTSLHSFPLPLYI	47800
MGASLVVFLLFFHLLFKNGLDLLIFPFSFFYSCTIFLSFLSFLYFSFCTHVFF	59800
MGCDVVGCDVVGFLFFLFFFILFLGLLVCWLAGWHVCWVFWFLVFVLGGLGGL	48200
MGCFFCYCSIVLFRSSLYIISFFLLFFFLCFLFFYHIWVGVLFPSIFPLFYIR	65400
MGCFFSFLFFFLFLFLFRSTVQSKVAFSLSLFFSLFKYLFFCCLVLGYFYLVL	70500
MGCICVILARCYCQTLNHFLTVLLLFRSVIFVLFLLFHFFVFVYVLFFFSFII	42000
MGCILIFIFTFPYTPSFPFPFWFLFFVFLSFSFSFQKFLVFSFLSFVWVTVGR	51700
MGCILIFSFFSFPTSIKKFLLLSFPFLSFPFPSLLFYLGFFSFLLYILQKFLV	58100
MGCKLIILFSSAMLFLFFSVLFLLLPLFFLSPTTCFLSFWLRLWLLLMVHWGR	47600
MGCLHFSLFVAFWVFIAFPPSVSYHLALYLLLLLLFILFLLMCGLLRAFGLPV	36700
MGCVRHEKVIDITLKLFYKKTGGRYLKSEYNLFAVLVYLCLYRLPTDLPFATL	53200
MGDCIKAHVFLLTFFYLYIHTHIFLFLFFIFLPFLLFSASSIYILFSFLFFPA	32300
MGDCIKVHVSFHCRFLVFIYTHTFFLFLFYSSSIVFCFIYIYIFPFISFFWGL	36000
MGDIKKISCIFFSFIFGLVLFFFVIIITIICILWIWAWDFWACFGSGLGLLVC	47100
MGEEDAKVGAGPALQVIVLGSGGGPQENNVTALLVRSVNSNWARGSMLALDAG	36500
MGFASFRKESFCRIGTKELMCARMCLLCPLARSLIFMVLRVVLLLSTLLLVFL	61900
MGFCFYVAGCMSISLILLFSFCLLLPPIFTGYQILWLLWIILPILSMSMLFTP	43400
MGFCSLYGSIFLFLFLVFFLLFFSSSVGNGASFFFFFPSILFWYSLYPLFTSF	35900
MGFDQALGLKLSPSSSGLLSTNESNAIEQFLDNLISQDMMSSNASMNSESHLH	76500
MGFEVIFFFLLLGFFIQLLFILLIILLFLLFLVFLLFCYFVILFRLCACMMLY	47900

Sequence	transcriptional activation domain activity
MGFFFVFYLLLSHCCFSLWVRGFGFFLSHPVFLFYILGGFCLVCFFPFFFPIN	48900
MGFFILFYFLFSLWVCGFGFFSRLSVLYLGGFVLFLINHLSLFLYIIFFFFMF	38800
MGFKDFPFVDFAVFFFFFFSPFFSSMFILSFIYLFWFDLGIGLVGVLLFFFCH	47500
MGFKLLLLLPYCTPRLIFKKLLLWLRFFFFLHFLFLPRRTLKNLAPCIFFLLY	40900
MGFKTSMGWICLSQVSFFDCNLLYCVVFFIFSSKSLATSPFLSLVLLFSLYPL	29200
MGFLFLLCVLVVWVFFRAWFFCFLFFLFLFLVLLFRYLFIYFLWSWYGGGSVG	48000
MGFLFLLCVLVVWVFFRAWFFRFLFSLVFLFWYFFIYFLWPWYGGVGRGLHSC	36100
MGFLLLLLILVFFFVLYLFYSFLFFFSFHWACCILYDMWEKERVELYLLLLLL	42800
MGFLTVHSCVFCFVVWVFFFPFFFLRDWFFSHSIFFLSLFFLVFFYIHLFLLG	43700
MGFSIDRAIELIWNLLYFFFLSSFLHIFLGLSWDMIICWNYFLSLFILLVFSS	62600
MGGAGDKVLICNCSSTDSFLRMFLLILVFFLIILLVCMDWSLRFLMMFVFLLV	19800
MGGCICLRWSCVNVFFSFVYSFGLACCFTSWEYGGVYLGEGGCFLFYLSFFFL	50500
MGGFFLFFFFFSFVDSFGVVYDMDMRSGGVFFFLPFLSTLFFLLLLGSVLFSC	71600
MGGFVYAYCSAQSLTLLPWLLFFDYLFFSFLCILNYISFLFFYFLGFEVGWVI	71200
MGGGCLYIILFLLRTTLGVMWVFFCLLFYLFLFWFSKSLIFFSLFLVLIPSYF	36500
MGGGGGACSCSIAYIHGFLSSLFFLLFATTFFHYSFCLLLLWMLIFFWLFAFV	< 6570
MGGGVWEPVLDVWLFSFFFSLYTSFFIGFGSLSFFPSYLVCFFFISFPPHFLL	53400
MGGGVYVCRSGAVYLFWVLLFYGLMFLTVDVITYLLAYLTLPMYLFFLLLVSF	39200
MGGKASWCVFSFCLLFPLYFLLSLPPSFFIFHFYCVLALLPLPLPFPFFPSIC	58700
MGGVFWKWKRGVWMVRFFRVFLQIFLADIGLILLVFWHYIVCLCYFLFFLVGI	52500
MGGVVWCFYRVFLFPFLLSPIIPSLLLSSLHTFPLSLTFTFTFILCRMFYVCT	53500
MGGVWGFLWSFFFLFPLFFFSLSKDGLDCFISFILVSFYFFSFLFCIHVFFFS	15600
MGGYLFHLLFFSFFLFSSLLRVYYYIVDMGGVLSLLYRFFLLLVTIFVRCIIF	57100
MGIGIHTFFYFWLLIFLFLFLFLFFSWFFFFVIVIIFFNYFIFLRAWMWIAGL	41600
MGIIIVVCVFFFLTGFLFTLVFLLSLWSLFVFFYFINFSFPLSFALLLLIFFL	40500

Sequence	transcriptional activation domain activity
MGIIIVVCVFFLFDRFSFLSCFSSFSLELIRFFIFILLTFLSFCHSPFYLFFF	60900
MGIRYHWLVFFCPFFSFTFASCFVLFVGMLFCFIILDYGCFSFLPLWFFFCPE	18700
MGKGGYGEQRGGGRGGFRGGRGGGRGGFGGGGFNQGPPSEVVVVGAFVSACEG	56800
MGKGGYGEQRGGGRGGFRGGRGGGRGGFGGGGFNQGPPSEVVVVGTFVSACEG	58400
MGKKRCLERILFLFLYAILFHILLLLLPSFPFLYLYTFAFVFYFSLSIYLVSL	43600
MGKRRRLLAKAQPKSGGSTSAKHHPQQGTGKAVAARGQKPQKQQGAPRNGSNG	21900
MGLANGDALITECGGVTFGFGFFLIFVGFWIGLDQVDGVWFLTLVWLLALFFL	53900
MGLGFFSFFLSVFSFFLFPFFFFGCEFIYLFLVFWWRVDFSPMAERHSVEAGP	53000
MGLGVLYHLSLLFPFLFFFLSLLFFSLLSSSFFLLWLFPISCLGFIVLFWTGS	22200
MGLGVLYHLSLLFPFLFFFLYLSSSFPSFLILFFFFFGYSPSAVWVFLFCFGQ	58100
MGLGVLYHLSLLFPSFSFFYLSSSFPPFFFFFLLLWLFPISCLGFLVLFWTGS	61300
MGLIIYLGHMGCLMPRDDPTLFTIIHTNGIHHVCIVFCSCAISVHPWQQLLCH	29000
MGLIYLYFIFFINLLIWFSVVFCELYFFFFCLCLSNCIFEIYFYVLFFNIFLY	51000
MGLKGLLRSTIYVSSLVWLGWVVNLGQFLLFPFYSVTLKLSYNVNACIISVLV	68500
MGLLCFVFVLHSVFFIFNALSFLPWFVFLKIKFIFLCLSSFGRVFSSFIYMIF	53000
MGLLGGRRAADYYLFLFFLFFFYLSLFSPRFSSFLHFPSYIELVGFFFFLLRL	36700
MGLLVIMEVVFCVINLDALFFFLLSLLLLFLTFFSFFRIMMEFIVFLHVSFYF	61400
MGLNLLVCIILVLHYFSTLLISFYFLLTVHTFRHIFAHSHSPVCMCLIFLTII	50200
MGLPYFWFYKHTCFSVNYVSSLFVLFFFYFLVGVVGYVTMGLVIFFLFFFLFF	70300
MGLRTTPDYQKVEFTVTDIGLILKTLWICADLITFLFPLQRLVFHALVLLFSF	62300
MGLSDWPRVLSWHASISLVYLPFWVVVSLVWRYHIWTLSSVVLIIFIHIIFGL	31700
MGLSSSCFFLLLLVLSLFYYFFLSFFFIGHVAYFMTCGGLERAFLYLLLLLLL	49100
MGLTVFSILYIPLNIIPPFFCCCLYIYHCFSFFSSTFILFFFFFGTVFAQVIL	53200
MGLVYPCWLVFFGWFPSFLFLIFLSFIINFILVFSFLLFTFIPPLFSLLSVQF	37900
